Measurements as given in article PMC8494748.

Target: T1, MS2 bacteriophage coat protein (bacteriophage MS2), P03612
T1 chain: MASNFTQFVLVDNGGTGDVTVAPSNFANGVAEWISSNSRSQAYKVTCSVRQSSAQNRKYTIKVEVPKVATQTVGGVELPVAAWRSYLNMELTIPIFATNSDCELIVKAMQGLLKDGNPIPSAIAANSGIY
Assay: SDS-PAGE with Western blot; 12.5% acrylamide gel, polyclonal anti-MS2 coat protein antibody; BL21(DE3) bacterial lysate; bands of 14 and 28 kDa
Conditions: remark: other sources report otherwise

B1: MS2 bacteriophage coat protein, P03612 1-130 (natural protein)
chain: T1 chain
stoichiometry N: 2
